Experimental data as given in article PMC2697320, “Identification of the high affinity binding site in the Streptococcus intermedius toxin intermedilysin for its membrane receptor, the human complement regulator CD59” (Molecular Immunology, 2009).

Target: Human CD59 on human erythrocytes (human (endogenous in human erythrocytes)) (UniProt P13987)
Sequence (P13987 26-102): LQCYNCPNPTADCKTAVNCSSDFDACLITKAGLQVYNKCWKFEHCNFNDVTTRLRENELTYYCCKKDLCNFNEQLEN

Q: For ILY LI > TV mutant (natural protein), which fold increase of the dose required for 50% hemolysis of human erythrocytes against native ILY is on record?
A: 2.5 fold
